Reference: patent US20180339057A1 (Novo Nordisk, published 2018)
Substitutions are numbered along the chain they refer to. Numbers in names are those of the source.

T1: human MIC-1 receptor (hGFRAL, GDNF family receptor alpha like), full length (human, UniProt Q6UXV0 19-394)
T1 construct: whole, on cells
T1 sequence (looked up): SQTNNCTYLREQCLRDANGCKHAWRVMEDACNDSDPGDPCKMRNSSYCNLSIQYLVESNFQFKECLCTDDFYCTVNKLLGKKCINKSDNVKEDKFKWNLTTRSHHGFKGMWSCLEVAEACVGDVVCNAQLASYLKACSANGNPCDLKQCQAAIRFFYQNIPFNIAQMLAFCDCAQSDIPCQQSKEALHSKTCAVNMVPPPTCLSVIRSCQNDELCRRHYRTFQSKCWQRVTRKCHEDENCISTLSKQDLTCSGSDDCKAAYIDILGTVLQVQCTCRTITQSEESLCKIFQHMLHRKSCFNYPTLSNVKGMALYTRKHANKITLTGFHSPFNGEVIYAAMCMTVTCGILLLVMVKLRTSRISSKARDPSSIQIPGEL

B1: Macrophage Inhibitory Cytokine-1 (MIC-1), human wild type, monomer sequence SEQ ID NO:1 (ligand)
chain: ARNGDHCPLGPGRCCRLHTVRASLEDLGWADWVLSPREVQVTMCIGACPSQFRAANMHAQIKTSLHRLKPDTVPAPCCVPASYNPMVLIQKTDTGVSLQTYDDLLAKDCHCI
notes: covalently linked homodimer; 112 amino acid monomer = residues 197-308 of the precursor; also called wtMIC-1
B2: Compound 05 (ligand)
chain: SEPATSCSETPGTSESATPESGPGTSTEPSEGARGDHCPLGPGRCCRLHTVRASLEDLGWADWVLSPREVQVTMCIGACPSQFRAANLHAQIKTSLHRLKPDTVPAPCCVPASYNPLVLIQKTDTGVSLQTYDDLLAKDCHCI
modifications: Cys-26 (residue 7 of SEQ ID NO: 289): S{Beta}-[2-[2-[[2-[2-[2-[[2-[2-[2-[[(4S)-4-carboxy-4-(17-carboxyheptadecanoylamino)butanoyl]amino]ethoxy]ethoxy]acetyl]amino]ethoxy]ethoxy]acetyl]amino]ethylamino]-2-oxoethyl]Cys (protractor of Example 10.4)
notes: homodimer, two protractors per dimer
B3: Compound 10 (ligand)
chain: B2 chain with C7G
modifications: alpha-amino group of the N-terminal Ser-32 (residue 1 of SEQ ID NO: 164): N-[4-[[[2-[2-[2-[[2-[2-[2-[[(4S)-4-carboxy-4-(17-carboxyheptadecanoylamino)butanoyl]amino]ethoxy]ethoxy]acetyl]amino]ethoxy]ethoxy]acetyl]amino]methyl]phenyl]methyl (protractor of Example 10.1)
notes: homodimer with one protractor on each of the two N-terminal extensions; also called Formula A (C18)
B4: Compound 15 (ligand)
chain 1: B2 chain with C7G, K100R, K122R, K138R
chain 2: B2 chain with C7G, K100R, K122R, K138R
modifications: alpha-amino group of the N-terminal Ser-32 (residue 1 of SEQ ID NO: 312): N-[4-[[[2-[2-[2-[[2-[2-[2-[[(4S)-4-carboxy-4-(17-carboxyheptadecanoylamino)butanoyl]amino]ethoxy]ethoxy]acetyl]amino]ethoxy]ethoxy]acetyl]amino]methyl]phenyl]methyl (protractor of Example 10.1)
notes: also called monoalkylated
B5: Compound 06 (ligand)
chain: B2 chain with C7G, S8C
modifications: Cys-25 (residue 8 of SEQ ID NO: 303): S{Beta}-[2-[2-[[2-[2-[2-[[2-[2-[2-[[(4S)-4-carboxy-4-(17-carboxyheptadecanoylamino)butanoyl]amino]ethoxy]ethoxy]acetyl]amino]ethoxy]ethoxy]acetyl]amino]ethylamino]-2-oxoethyl]Cys (protractor of Example 10.4)
notes: as for B2
B6: SEPATSGSETPGTSESATPESGPGTSTEPCEG-MIC-1, des-N3, M57L, M86L (Cys mutation S(-3)C) (ligand)
chain: B2 chain with C7G, S30C
notes: homodimer; no protractor
B7: SEPCTSGSETPGTSESATPESGPGTSTEPSEG-MIC-1, des-N3 (Cys mutation A(-29)C) (ligand)
chain: B2 chain with A4C, C7G, L88M, L117M
notes: homodimer; no protractor
B8: Compound 16 (ligand)
chain: B2 chain with C7G, K100R, K122R, K138R
modifications: alpha-amino group of the N-terminal Ser-32 (residue 1 of SEQ ID NO: 312): N-[4-[[[2-[2-[2-[[2-[2-[2-[[(4S)-4-carboxy-4-(17-carboxyheptadecanoylamino)butanoyl]amino]ethoxy]ethoxy]acetyl]amino]ethoxy]ethoxy]acetyl]amino]methyl]phenyl]methyl (protractor of Example 10.1)
notes: homodimer, two protractors per dimer; also called dialkylated
B9: Compound 11 (ligand)
chain: B2 chain with A4C, C7G
modifications: Cys-29 (residue 4 of SEQ ID NO: 290): S{Beta}-[2-[2-[[2-[2-[2-[[2-[2-[2-[[(4S)-4-carboxy-4-(17-carboxyheptadecanoylamino)butanoyl]amino]ethoxy]ethoxy]acetyl]amino]ethoxy]ethoxy]acetyl]amino]ethylamino]-2-oxoethyl]Cys (protractor of Example 10.4)
notes: as for B2
B10: SEPATSCSETPGTSESATPESGPGTSTEPSEG-MIC-1, des-N3, M57L, M86L (Cys mutation G(-26)C) (ligand)
chain: B2 chain
notes: homodimer; no protractor
B11: Compound 07 (ligand)
chain: B2 chain with C7G, T18C
modifications: Cys-15 (residue 18 of SEQ ID NO: 292): S{Beta}-[2-[2-[[2-[2-[2-[[2-[2-[2-[[(4S)-4-carboxy-4-(17-carboxyheptadecanoylamino)butanoyl]amino]ethoxy]ethoxy]acetyl]amino]ethoxy]ethoxy]acetyl]amino]ethylamino]-2-oxoethyl]Cys (protractor of Example 10.4)
notes: as for B2
B12: Compound 20 (ligand)
chain: B2 chain with A4C, C7G, L88M, L117M
modifications: Cys-29 (residue 4 of SEQ ID NO: 288): S{Beta}-[2-[[(1S)-1-carboxy-5-[[2-[2-[2-[[2-[2-[2-[[(4S)-4-carboxy-4-[12-(4-carboxyphenoxy)dodecanoylamino]butanoyl]amino]ethoxy]ethoxy]acetyl]amino]ethoxy]ethoxy]acetyl]amino]pentyl]amino]-2-oxoethyl]Cys (protractor of Example 10.9)
notes: as for B2
B13: Compound 19 (ligand)
chain: B2 chain with A4C, C7G, L88M, L117M
modifications: Cys-29 (residue 4 of SEQ ID NO: 288): S{Beta}-[2-[[(1S)-1-carboxy-5-[[2-[2-[2-[[2-[2-[2-[[(4S)-4-carboxy-4-[10-(4-carboxyphenoxy)decanoylamino]butanoyl]amino]ethoxy]ethoxy]acetyl]amino]ethoxy]ethoxy]acetyl]amino]pentyl]amino]-2-oxoethyl]Cys (protractor of Example 10.8)
notes: as for B2
B14: Compound 17 (ligand)
chain: B2 chain with A4C, C7G, L88M, L117M
modifications: Cys-29 (residue 4 of SEQ ID NO: 288): S{Beta}-[2-[2-[[2-[2-[2-[[2-[2-[2-[[(4S)-4-carboxy-4-(16-sulfohexadecanoylamino)butanoyl]amino]ethoxy]ethoxy]acetyl]amino]ethoxy]ethoxy]acetyl]amino]ethylamino]-2-oxoethyl]Cys (protractor of Example 10.6)
notes: as for B2
B15: SEPATSGSETPGTSESACPESGPGTSTEPSEG-MIC-1, des-N3, M57L, M86L (Cys mutation T(-15)C) (ligand)
chain: B2 chain with C7G, T18C
notes: homodimer; no protractor
B16: SEPATSGSETPGTSESATPESGPGTSTEPSEG-MIC-1, del-N3, M57L, M86L, K69R, K107R, K91R (ligand)
chain: B2 chain with C7G, K100R, K122R, K138R
notes: homodimer; no protractor
B17: Compound 21 (ligand)
chain: B2 chain with A4C, C7G, L88M, L117M
modifications: Cys-29 (residue 4 of SEQ ID NO: 288): S{Beta}-[2-[2-[[2-[2-[2-[[2-[2-[2-[[(4S)-4-carboxy-4-[16-(1H-tetrazol-5-yl)hexadecanoylamino]butanoyl]amino]ethoxy]ethoxy]acetyl]amino]ethoxy]ethoxy]acetyl]amino]ethylamino]-2-oxoethyl]Cys (protractor of Example 10.10)
notes: as for B2
B18: SEPATSGCETPGTSESATPESGPGTSTEPSEG-MIC-1, des-N3, M57L, M86L (Cys mutation S(-25)C) (ligand)
chain: B2 chain with C7G, S8C
notes: homodimer; no protractor
B19: SEPATCGSETPGTSESATPESGPGTSTEPSEG-MIC-1, des-N3 (Cys mutation S(-27)C) (ligand)
chain: B2 chain with S6C, C7G, L88M, L117M
notes: homodimer; no protractor
B20: SEPCTSGSETPGTSESATPESGPGTSTEPSEG-MIC-1, des-N3, M57L, M86L (Cys mutation A(-29)C) (ligand)
chain: B2 chain with A4C, C7G
notes: homodimer; no protractor
B21: Compound 08 (ligand)
chain: B2 chain with C7G, S30C
modifications: Cys-3 (residue 30 of SEQ ID NO: 293): S{Beta}-[2-[2-[[2-[2-[2-[[2-[2-[2-[[(4S)-4-carboxy-4-(17-carboxyheptadecanoylamino)butanoyl]amino]ethoxy]ethoxy]acetyl]amino]ethoxy]ethoxy]acetyl]amino]ethylamino]-2-oxoethyl]Cys (protractor of Example 10.4)
notes: as for B2
B22: Compound 18 (ligand)
chain: B2 chain with A4C, C7G, L88M, L117M
modifications: Cys-29 (residue 4 of SEQ ID NO: 288): S{Beta}-[2-[[(5S)-5-carboxy-5-[[2-[2-[2-[[2-[2-[2-[4-[17-(1H-tetrazol-5-yl)heptadecanoylsulfamoyl]butanoylamino]ethoxy]ethoxy]acetyl]amino]ethoxy]ethoxy]acetyl]amino]pentyl]amino]-2-oxoethyl]Cys (protractor of Example 10.7)
notes: as for B2

target: T1, human MIC-1 receptor (hGFRAL, GDNF …); test: SPA: displacement of 50 pM human [125I]-MIC-1 from BHK21-hGFRAL-IRES-hRET cell membranes
Description: Binding potencies of MIC-1 compounds were calculated by IC50 of displacement curves.
BHK21-hGFRAL-IRES-hRET cells were cultured at +37° C. in a humidified atmosphere with 5% CO₂ in complete medium consisting of DMEM with high glucose and sodium pyrovate, heat inactivated 10% Fetal Bovine Serum, 1% Penicillin-Streptomycin, 1 mg/ml G418-Geneticin and 400 ug/ml Hygromycin. Cells were washed twice in ice cold Dulbecco's phosphate-buffered saline (DPBS) and detached mechanically by scraping, transferred in ice cold DPBS into conical centrifuge tubes and centrifuged for 5 min at 1500 rpm at +20° C. Cell pellet was resuspended in a total amount of 10 ml ice cold homogenization buffer A (50 mM Tris, 2.5 mM EDTA, adjust pH7.4 with one EDTA-free protease inhibitor cocktail tablet/50 ml) and homogenized for 20 seconds. The homogenate was centrifuged at 16000 rpm in 20 minutes at +4° C. The supernatant was discarded and the pellet was reconstituted in 10 ml homogenization buffer B (50 mM Tris, 320 mM Sucrose, adjust pH 7.4 with one EDTA-free protease inhibitor cocktail tablet/50 ml) and homogenized for 20 seconds and centrifuged at 16000 rpm in 20 minutes at +4° C. This procedure was repeated one more time. The supernatant was discarded and the pellet was reconstituted in 3 ml homogenization buffer B and homogenized for 10 seconds at low speed. Protein concentration was determined by standard Bradford method and 1.5 mg protein/tube was aliquoted to cryotubes and stored at −80° C. Binding assays were performed in white 96-well plates in a total volume of 200 μl per well. Wheat germ agglutinin SPA beads were reconstituted in assay buffer (50 mM Tris/HCl, 4.5 mM MgCl₂, 0.02% Tween 20 and 0.25% Ovalbumin pH 7.4) and mixed with membrane preparation to give a final concentration of 0.5 mg SPA beads and 10 μg total protein per well. […] The plate was sealed and incubated at +22° C. for 2 hours in a plate shaker set at 350 rpm and thereafter centrifuged at 1500 rpm for 10 minutes prior to reading of SPA bead light emission.

Binder | IC50 [nM]
B1 | 0.67
B2 | 23
B3 | 20
B4 | 39
B5 | 21
B6 | 83
B7 | 6.7
B8 | 11
B9 | 29
B10 | 36
B11 | 29
B12 | 6.5
B13 | 17
B14 | 4.7
B15 | 29
B16 | 116
B17 | 1
B18 | 43
B19 | 10
B20 | 80
B21 | 56
B22 | 1.3

target: T1, human MIC-1 receptor (hGFRAL, GDNF …); test: cell-based or functional assay

Binder | Luciferase + 0.1% HSA NNDK EC50 (pM) | Luciferase NNDK EC50 (pM)
B1 | 36 | 59
B2 | 63 | 57
B3 | 146 | 71
B4 | 39 | 61
B5 | 61 | 81
B6 | 243 | 217
B7 | 47 | 70
B8 | 51 | 63
B9 | 62 | 55
B10 | 26 | 35
B11 | 198 | 121
B12 | 77 | 49
B13 | 62 | 45
B14 | 65 | 43
B15 | 115 | 125
B16 | 35 | 42
B17 | 56 | 53
B18 | 34 | 57
B19 | 45 | 80
B20 | 75 | 100
B21 | 651 | 139
B22 | 67 | 66

target: T1, human MIC-1 receptor (hGFRAL, GDNF …); test: cell-based or functional assay; remark: another data set of the same source

Binder | Emax (%) | pERK EC50 (nM)
B1 | 100 | 0.3
